Publication PMC10786891, “Massively parallel profiling of RNA-targeting CRISPR-Cas13d”
Numbering of substitutions follows the chain as printed. Names and notes keep the numbering of the source.

T1: EsCas13d, nuclease-dead (Eubacterium siraeum, UniProt B0MS50, R295A;H300A;R849A;H854A)
T1 sequence: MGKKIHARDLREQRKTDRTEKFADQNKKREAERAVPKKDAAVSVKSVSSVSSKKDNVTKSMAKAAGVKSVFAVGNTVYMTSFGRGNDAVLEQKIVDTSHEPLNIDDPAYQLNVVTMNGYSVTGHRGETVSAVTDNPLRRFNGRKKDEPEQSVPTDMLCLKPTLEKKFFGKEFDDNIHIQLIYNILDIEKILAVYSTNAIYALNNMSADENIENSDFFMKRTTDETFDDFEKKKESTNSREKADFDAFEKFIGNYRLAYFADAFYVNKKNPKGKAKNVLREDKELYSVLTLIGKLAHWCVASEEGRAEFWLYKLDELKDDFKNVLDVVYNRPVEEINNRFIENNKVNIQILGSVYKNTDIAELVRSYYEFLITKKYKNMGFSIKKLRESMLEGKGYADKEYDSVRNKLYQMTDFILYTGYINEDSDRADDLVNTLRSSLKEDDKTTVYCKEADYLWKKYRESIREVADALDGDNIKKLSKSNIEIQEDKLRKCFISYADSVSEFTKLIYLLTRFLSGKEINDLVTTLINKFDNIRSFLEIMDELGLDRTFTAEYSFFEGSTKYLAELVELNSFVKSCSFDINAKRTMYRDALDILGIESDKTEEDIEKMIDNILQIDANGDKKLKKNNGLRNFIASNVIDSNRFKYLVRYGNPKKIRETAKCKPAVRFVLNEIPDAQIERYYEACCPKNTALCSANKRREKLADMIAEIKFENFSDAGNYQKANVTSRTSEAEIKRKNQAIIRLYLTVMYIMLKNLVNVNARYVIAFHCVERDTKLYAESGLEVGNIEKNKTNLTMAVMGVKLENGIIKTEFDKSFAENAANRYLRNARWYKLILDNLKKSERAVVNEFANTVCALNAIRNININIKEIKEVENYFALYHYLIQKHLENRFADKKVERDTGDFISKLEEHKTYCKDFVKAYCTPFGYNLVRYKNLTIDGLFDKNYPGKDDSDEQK

B1: target 1 insU 3' of 18,insU 3' of 15 (mixed)
RNA 1: CACCCGUGCAAAAAUGCAGGGGUCUAAAACUGAGCGGAUAACCUCUCUAUGG
RNA 2: GGGAAUGGAUCCACAUCUACGAAUUCGUACCAUAUGAGUAGGUUAUCCGCUCACCGAGAUCGGAAGAGCACACGU
B2: target 1 insU 3' of 22,insG 3' of 20 (mixed)
RNA 1: B1 RNA 1
RNA 2: B1 RNA 2 with C31U, A32C, U33A, A34G, G36A, A37G, G38A, U39G
B3: target 1 U3C (mixed)
RNA 1: B1 RNA 1
RNA 2: GGGAAUGGAUCCACAUCUACGAAUUCGUACCAUAGAGAGGUUAUCCGCCCACCGAGAUCGGAAGAGCACACGU
B4: target 1 insU 3' of 14,insG 3' of 7 (mixed)
RNA 1: B1 RNA 1
RNA 2: GGGAAUGGAUCCACAUCUACGAAUUCGUACCAUAGAGAUGGUUAUCGCGCUCACCGAGAUCGGAAGAGCACACGU
B5: target 1 G5C,G12U (mixed)
RNA 1: B1 RNA 1
RNA 2: B3 RNA 2 with G40U, G47C, C49U
B6: target 1 insG 3' of 4,insU 3' of 4 (mixed)
RNA 1: B1 RNA 1
RNA 2: B4 RNA 2 with U39G, G41U, U43A, A44U, U45C, C50U
B7: target 1 insC 3' of 13,insC 3' of 12 (mixed)
RNA 1: B1 RNA 1
RNA 2: B4 RNA 2 with U39G, G40C, U42C, A44U, U45A, C46U, G47C
B8: target 1 C4A,U10G (mixed)
RNA 1: B1 RNA 1
RNA 2: B3 RNA 2 with U42G, C48A, C49U
B9: target 1 G5A,U11C (mixed)
RNA 1: B1 RNA 1
RNA 2: B3 RNA 2 with U41C, G47A, C49U
B10: target 1 C6U,A20C (mixed)
RNA 1: B1 RNA 1
RNA 2: B3 RNA 2 with A32C, C46U, C49U
B11: target 1 G15A,A18C (mixed)
RNA 1: B1 RNA 1
RNA 2: B3 RNA 2 with A34C, G37A, C49U
B12: target 1 G12U,G17U (mixed)
RNA 1: B1 RNA 1
RNA 2: B3 RNA 2 with G35U, G40U, C49U
B13: target 1 complement block 3-11 (mixed)
RNA 1: B1 RNA 1
RNA 2: B3 RNA 2 with U41A, U42A, A43U, U44A, C45G, C46G, G47C, C48G, C49A
B14: target 1 C7A,U11A (mixed)
RNA 1: B1 RNA 1
RNA 2: B3 RNA 2 with U41A, C45A, C49U
B15: target 1 insA 3' of 19,insC 3' of 12 (mixed)
RNA 1: B1 RNA 1
RNA 2: B1 RNA 2 with U35A, U39A, A40G, G42C
B16: target 1 insC 3' of 13,insA 3' of 10 (mixed)
RNA 1: B1 RNA 1
RNA 2: B4 RNA 2 with U39G, G40C, U45A, C46U, G47C

These binders were tested against T1, EsCas13d, nuclease-dead (assay: crRNA (strand 1, pre-loaded); Mg2+; 40 mM Tris-HCl pH 7.5, 150 mM NaCl, 6 mM MgCl2, 1 mM DTT, 0.1% Tween-20, 0.2 mg/ml BSA; 25 C; 10 min per concentration, then washed). Conditions: tags: His6-TwinStrep-SUMO cleaved; N-terminal SNAP kept (SNAP-Surface 488); label: 3' end held by stalled T7 RNA polymerase.

Point of comparison: B9, Kd 34 ± 4 nM. Against it:
- B1 — within error, 50 ± 12 nM
- B2 — 2.3-fold higher, 78 ± 24 nM
- B3 — within 1.5-fold, 26.3 ± 3.2 nM
- B4 — within error, 29.3 ± 1.7 nM
- B5 — 3.9-fold lower, 8.7 ± 0.6 nM
- B6 — 4.9-fold lower, 7 ± 0.4 nM
- B7 — 1.9-fold lower, 17.7 ± 1.2 nM
- B8 — 3.4-fold lower, 10.1 ± 0.9 nM
- B10 — 2.9-fold higher, 100 ± 50 nM
- B11 — 2.4-fold higher, 81 ± 15 nM
- B12 — within error, 31.3 ± 3.5 nM
- B13 — 2.6-fold lower, 13 ± 0.6 nM
- B14 — 1.9-fold lower, 17.9 ± 1.3 nM
- B15 — 2.1-fold higher, 70 ± 31 nM
- B16 — 2.7-fold lower, 12.7 ± 0.6 nM
